What is called Kd is the equilibrium constant for the complex coming apart. Read a low Kd as higher affinity.

Experiment [1] addresses Phosphorylated Nox1 peptide (pNox1, KLKT*QKIYF). The experiment in a line: ITC, phosphorylated versus unphosphorylated Nox1 peptide. (Isothermal titration calorimetry measures the heat released or taken up as one component is titrated into another.)
Experiment [2] has the same target. The experiment in a line: ITC, pNox1 peptide injected into NoxA1 AD peptide, single site model, n=3, 25° C.
For experiment [3] the target is unchanged. The experiment in a line: ITC, pNox1 peptide injected into NoxA1 AD peptide, single site model, n=3, 25° C.; phosphorylated Nox1 peptide (pNox1, T429).

“NoxA1 activation domain (AD) peptide (…)” came in with a fold increase of association against the unphosphorylated Nox1 peptide in experiment [1] of over 100 fold. The same substance showed a stoichiometry in experiment [2] of 0.86. The Kd in experiment [3] came to 1500 nM.

Source of the values: US20150368301A1.
